The data set in a line: protein stability index of a GFP-peptide fusion (GPS, HEK-293T) (PSI 1-6); higher = more stable. To be noted: c terminus: a fixed tail appended.

± gives the standard deviation.
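Note: 24-mer peptide tiles fused after GFP, lentivirally expressed, FACS-sorted into six equal bins by GFP/DsRed ratio, decoded by Illumina sequencing, PSI is the read-weighted mean bin number.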

As for SSYSLSDMVSNIELPTRIHEEVYF [MIA2], the protein stability index (treatment: DMSO) was found to be 2.35 ± 0.39 and the protein stability index (treatment: MLN4924 1 uM, 8 h) stood at 2.5 ± 0.6. YKPEQPLVRLRGGAYIGEGRVEVL [LOXL2]: the protein stability index worked out at 3.12 ± 0.16 (treatment: DMSO) and 2.97 ± 0.47 (treatment: MLN4924 1 uM, 8 h). For the sequence LAEWEANPLICPVCTKYNLRITSG [RPAIN], the protein stability index is 3.35 ± 0.36 (treatment: DMSO) and 3.31 ± 0.36 (treatment: MLN4924 1 uM, 8 h). For GATYLELHSLDDFYIGKYFGGVLE [RHOBTB3], in that order: 2.6 ± 0.61 and 2.32 ± 0.23. As to PKTVQQPTESEPVTINIQDLLSCS [MATN2], the protein stability index (treatment: DMSO) was found to be 4.35 ± 0.17 and the protein stability index (treatment: MLN4924 1 uM, 8 h) was 4.32 ± 0.16.

On to MQRMIQQFAAEYTSKNSSTQDPSQ [LCOR], for which the protein stability index runs as follows: (treatment: DMSO) 3.69 ± 0.41; (treatment: MLN4924 1 uM, 8 h) 3.68 ± 0.45.

With LKECLKKQLEFCFSRENLSKDLYL [LARP4], for the setting “treatment: MLN4924 1 uM, 8 h”, the protein stability index was found to be 2.67 ± 0.89. Take TCFVRDGKTYCKRDYVRLFGIKCA [ISL2]: the protein stability index reads like this: (treatment: DMSO) 2.46 ± 0.18; (treatment: MLN4924 1 uM, 8 h) 2.17 ± 0.19. With NVSVMHKSLDNMPNDEHWKALSRK [FBXO33], the protein stability index reads like this: (treatment: DMSO) 4.19 ± 0.089; (treatment: MLN4924 1 uM, 8 h) 4.03 ± 0.14.

For APVILVGCQLDLRYADLEAVNRAR [RHOBTB2], the protein stability index is 2.57 ± 0.17 (treatment: DMSO) and 2.45 ± 0.21 (treatment: MLN4924 1 uM, 8 h).

Consider YQASAMMVESRYALLIVDSATALY [RAD51], for which the protein stability index worked out at 2.94 ± 0.47 (treatment: DMSO) and 2.89 ± 0.41 (treatment: MLN4924 1 uM, 8 h). For TSIGMPSLMYRSPPGAEEPQAPPA [RETREG3], the protein stability index worked out at 5.12 ± 0.12 (treatment: DMSO) and 4.92 ± 0.07 (treatment: MLN4924 1 uM, 8 h). On to IPNAASEEGDEDDWASNKVMFKIG [WEE1], for which the protein stability index stood at 4.62 ± 0.13 (treatment: DMSO) and 4.28 ± 0.3 (treatment: MLN4924 1 uM, 8 h). Taken in the same sequence, the figures for RTSSGNVWVTHEEMETLETSTKTD [PPFIA4] were 5.24 ± 0.35 and 4.99 ± 0.06.

On to RKLSQGILIIRFEMPYNIWCDGCK [YJU2B], for which the protein stability index (treatment: DMSO) stood at 2.57 ± 0.62 and the protein stability index (treatment: MLN4924 1 uM, 8 h) amounted to 3.3 ± 0.79.

For the sequence IERANNVKYGLAATVWSSNVGRVH [ALDH8A1], the protein stability index is 2.66 ± 0.29 (treatment: DMSO) and 2.8 ± 0.25 (treatment: MLN4924 1 uM, 8 h). As to GALPVGSNLTSNLASLVSQGMIQL [RETREG3], the protein stability index is, setting by setting: (treatment: DMSO) 2.21 ± 0.24; (treatment: MLN4924 1 uM, 8 h) 2.46 ± 0.16. In turn, KVLIQKNLGPKSKVLILRNHGLVS [ADD1] yielded a protein stability index (treatment: DMSO) of 2.08 ± 0.36 and a protein stability index (treatment: MLN4924 1 uM, 8 h) of 2.16 ± 0.33. Turning to ALCELLEKETQIIASIGRHRYIAY [IQUB], the protein stability index by setting is: (treatment: DMSO) 2.25 ± 0.3; (treatment: MLN4924 1 uM, 8 h) 2.16 ± 0.24. As for VEGFRVTLVDEGDLYNWEVAIFGP [CDC34], the protein stability index turned out to be 3.11 ± 0.82 (treatment: DMSO) and 2.85 ± 0.95 (treatment: MLN4924 1 uM, 8 h). TCCYFKFIIEYYNIRPADSRWVRD [FBXO34]: the protein stability index reads like this: (treatment: DMSO) 2.84 ± 1.2; (treatment: MLN4924 1 uM, 8 h) 2.29 ± 0.54. As for PMAADEGSAEKQAGEAHMAADGET [EHMT1], the protein stability index by setting is: (treatment: DMSO) 5.6 ± 0.17; (treatment: MLN4924 1 uM, 8 h) 5.66 ± 0.082. As to TPNASSPGNPTALANGTVQAPKQK [LPCAT4], the protein stability index was found to be 5.31 ± 0.13 (treatment: DMSO) and 5.43 ± 0.15 (treatment: MLN4924 1 uM, 8 h). PHTPGKPTSSCTSRSAPPGLQAPP [FOXJ1] showed a protein stability index (treatment: DMSO) of 4.42 ± 0.19 and a protein stability index (treatment: MLN4924 1 uM, 8 h) of 4.86 ± 0.18.

In the case of DHSSQSEEEVVEGEKEVEALKKSA [BNIP3L], the protein stability index (treatment: DMSO) was found to be 5.5 ± 0.36 and the protein stability index (treatment: MLN4924 1 uM, 8 h) was determined as 5.67 ± 0.26. For KSKSITNLAAAAADIPQDQLVVMH [BTBD10], in that order: 4.43 ± 0.34 and 4.64 ± 0.4. Take DVHHGNGTQHMFEDDPSVLYVSLH [HDAC6]: the protein stability index was 2.97 ± 0.34 (treatment: DMSO) and 2.93 ± 0.31 (treatment: MLN4924 1 uM, 8 h). Taken in the same sequence, the figures for SVGHNNLIPLANTGIVNHTHSRMG [CARM1] were 3.47 ± 0.32 and 3.66 ± 0.2. For EDRIVTQNRVFAYLCKRVPHTVLD [CEP70], in that order: 2.27 ± 0.2 and 2.37 ± 0.37.

As to LFGTIAYLPPERIREKSRLFDTKH [RIPK4], the protein stability index (treatment: DMSO) worked out at 2.57 ± 0.52 and the protein stability index (treatment: MLN4924 1 uM, 8 h) turned out to be 2.57 ± 0.27. In the case of RVILEIDNARLAVDDFRLKYENEL [KRT13], the protein stability index reads like this: (treatment: DMSO) 2.4 ± 0.25; (treatment: MLN4924 1 uM, 8 h) 2.66 ± 0.45. Regarding RLPGGGWTLRRTKELRKDYQGPGT [DYRK1B], the protein stability index is, setting by setting: (treatment: DMSO) 3.14 ± 0.26; (treatment: MLN4924 1 uM, 8 h) 3.43 ± 0.35. With IDDRYGDLDSRTDSDIPEIPPSSD [CDS1], the protein stability index amounted to 5.43 ± 0.34 (treatment: DMSO) and 5.45 ± 0.19 (treatment: MLN4924 1 uM, 8 h). Taken in the same sequence, the figures for VSPIQIDGAGRTWQDSDTVKLLVD [TOR1AIP2] were 3.92 ± 0.11 and 3.75 ± 0.32. For MQEKNPVHVIGVEEPSVGASMLFD [ZNF8], in that order: 4.41 ± 0.094 and 4.34 ± 0.2. For KRKSEVERAVKRMRHLSTGTMTGL [MATN2], in that order: 3.31 ± 0.088 and 3.12 ± 0.65. RALDRLQEVPHEGPMCDLLWSDPD [PPP2CA]: the protein stability index (treatment: DMSO) stood at 4.42 ± 0.34 and the protein stability index (treatment: MLN4924 1 uM, 8 h) was 4.66 ± 0.17.

Values taken from the supplement of paper PMC10567573.
